Reference: patent publication US20090192084A1

Columns and labels:
[1] = biological target: PLAP (human) (UniProt Q9Y263); test: Flag co-IP, 293 cells, MudPIT MS
[2] = biological target: T1, VCIP135 (human) (UniProt Q96JH7); test: Flag co-IP, 293 cells, MudPIT MS
T1 sequence (looked up): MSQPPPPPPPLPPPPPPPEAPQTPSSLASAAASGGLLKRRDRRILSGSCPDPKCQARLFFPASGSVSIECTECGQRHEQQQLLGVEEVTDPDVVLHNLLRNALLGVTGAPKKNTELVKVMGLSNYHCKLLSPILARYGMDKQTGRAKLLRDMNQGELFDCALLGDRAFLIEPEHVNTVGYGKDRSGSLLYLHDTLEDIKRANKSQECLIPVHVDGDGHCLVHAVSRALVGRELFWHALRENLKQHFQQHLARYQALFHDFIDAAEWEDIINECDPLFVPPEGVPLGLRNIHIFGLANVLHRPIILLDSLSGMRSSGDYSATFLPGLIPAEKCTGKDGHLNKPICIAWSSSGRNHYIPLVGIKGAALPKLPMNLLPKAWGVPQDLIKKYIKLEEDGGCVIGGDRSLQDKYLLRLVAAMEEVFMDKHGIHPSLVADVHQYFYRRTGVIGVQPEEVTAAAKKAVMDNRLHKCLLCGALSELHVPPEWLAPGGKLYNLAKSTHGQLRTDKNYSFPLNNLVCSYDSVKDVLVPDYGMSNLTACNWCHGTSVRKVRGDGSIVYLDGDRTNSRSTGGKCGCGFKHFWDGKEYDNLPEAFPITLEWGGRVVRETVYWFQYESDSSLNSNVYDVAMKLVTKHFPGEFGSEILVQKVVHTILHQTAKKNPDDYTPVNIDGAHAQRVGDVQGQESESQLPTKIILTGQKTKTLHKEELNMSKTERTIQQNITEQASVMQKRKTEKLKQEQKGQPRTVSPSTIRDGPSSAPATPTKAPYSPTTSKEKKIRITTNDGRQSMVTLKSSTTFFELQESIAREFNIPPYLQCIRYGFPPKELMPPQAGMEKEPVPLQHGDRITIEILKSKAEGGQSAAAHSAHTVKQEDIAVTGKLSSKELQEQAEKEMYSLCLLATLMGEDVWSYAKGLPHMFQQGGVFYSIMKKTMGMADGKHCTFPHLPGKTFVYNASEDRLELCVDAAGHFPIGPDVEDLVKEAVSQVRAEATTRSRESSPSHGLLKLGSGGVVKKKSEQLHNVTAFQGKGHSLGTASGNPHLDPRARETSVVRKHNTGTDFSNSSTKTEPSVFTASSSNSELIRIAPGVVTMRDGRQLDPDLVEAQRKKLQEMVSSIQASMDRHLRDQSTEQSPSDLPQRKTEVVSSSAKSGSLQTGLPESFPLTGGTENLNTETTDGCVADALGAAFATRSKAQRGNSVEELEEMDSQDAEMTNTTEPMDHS

[3] = biological target: Retinoblastoma-associated factor 600, UBR4 (human) (UniProt Q5T4S7); test: Flag co-IP, MudPIT MS, MG132
[4] = biological target: Cullin 2 (human) (UniProt Q13617); test: Flag co-IP, MudPIT MS, MG132
Chain of Cullin 2 (human) (Q13617 whole entry): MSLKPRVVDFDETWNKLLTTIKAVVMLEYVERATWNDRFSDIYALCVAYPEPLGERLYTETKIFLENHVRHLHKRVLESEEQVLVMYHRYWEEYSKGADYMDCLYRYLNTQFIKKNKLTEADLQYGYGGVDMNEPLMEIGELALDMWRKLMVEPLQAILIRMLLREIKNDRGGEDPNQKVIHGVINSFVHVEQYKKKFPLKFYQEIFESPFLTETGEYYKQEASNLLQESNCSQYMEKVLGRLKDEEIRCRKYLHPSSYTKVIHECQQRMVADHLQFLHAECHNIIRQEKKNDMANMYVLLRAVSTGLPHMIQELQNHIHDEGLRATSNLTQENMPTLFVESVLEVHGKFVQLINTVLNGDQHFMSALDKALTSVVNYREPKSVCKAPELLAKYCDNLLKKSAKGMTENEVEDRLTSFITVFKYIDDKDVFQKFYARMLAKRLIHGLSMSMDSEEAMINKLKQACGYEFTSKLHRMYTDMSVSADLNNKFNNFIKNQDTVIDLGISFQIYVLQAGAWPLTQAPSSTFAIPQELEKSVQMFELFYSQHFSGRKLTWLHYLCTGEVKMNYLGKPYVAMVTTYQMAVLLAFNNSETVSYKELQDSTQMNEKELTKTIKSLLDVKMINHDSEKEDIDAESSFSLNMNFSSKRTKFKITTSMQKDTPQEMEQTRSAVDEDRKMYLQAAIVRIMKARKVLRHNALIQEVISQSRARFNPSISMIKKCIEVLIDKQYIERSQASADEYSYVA

[5] = biological target: gp78 (human) (UniProt Q9UKV5); test: Flag co-IP, MudPIT MS, MG132
[6] = biological target: Cullin 1 (human) (UniProt Q13616); test: Flag co-IP, MudPIT MS, MG132
[7] = biological target: F-box//WD-repeat protein 1B, FBW1B (human) (UniProt Q9UKB1); test: Flag co-IP, MudPIT MS, MG132
[8] = biological target: UBR2 (human) (UniProt Q8IWV8); test: Flag co-IP, MudPIT MS, MG132
Chain of UBR2 (human) (Q8IWV8 2-1755 limits assumed): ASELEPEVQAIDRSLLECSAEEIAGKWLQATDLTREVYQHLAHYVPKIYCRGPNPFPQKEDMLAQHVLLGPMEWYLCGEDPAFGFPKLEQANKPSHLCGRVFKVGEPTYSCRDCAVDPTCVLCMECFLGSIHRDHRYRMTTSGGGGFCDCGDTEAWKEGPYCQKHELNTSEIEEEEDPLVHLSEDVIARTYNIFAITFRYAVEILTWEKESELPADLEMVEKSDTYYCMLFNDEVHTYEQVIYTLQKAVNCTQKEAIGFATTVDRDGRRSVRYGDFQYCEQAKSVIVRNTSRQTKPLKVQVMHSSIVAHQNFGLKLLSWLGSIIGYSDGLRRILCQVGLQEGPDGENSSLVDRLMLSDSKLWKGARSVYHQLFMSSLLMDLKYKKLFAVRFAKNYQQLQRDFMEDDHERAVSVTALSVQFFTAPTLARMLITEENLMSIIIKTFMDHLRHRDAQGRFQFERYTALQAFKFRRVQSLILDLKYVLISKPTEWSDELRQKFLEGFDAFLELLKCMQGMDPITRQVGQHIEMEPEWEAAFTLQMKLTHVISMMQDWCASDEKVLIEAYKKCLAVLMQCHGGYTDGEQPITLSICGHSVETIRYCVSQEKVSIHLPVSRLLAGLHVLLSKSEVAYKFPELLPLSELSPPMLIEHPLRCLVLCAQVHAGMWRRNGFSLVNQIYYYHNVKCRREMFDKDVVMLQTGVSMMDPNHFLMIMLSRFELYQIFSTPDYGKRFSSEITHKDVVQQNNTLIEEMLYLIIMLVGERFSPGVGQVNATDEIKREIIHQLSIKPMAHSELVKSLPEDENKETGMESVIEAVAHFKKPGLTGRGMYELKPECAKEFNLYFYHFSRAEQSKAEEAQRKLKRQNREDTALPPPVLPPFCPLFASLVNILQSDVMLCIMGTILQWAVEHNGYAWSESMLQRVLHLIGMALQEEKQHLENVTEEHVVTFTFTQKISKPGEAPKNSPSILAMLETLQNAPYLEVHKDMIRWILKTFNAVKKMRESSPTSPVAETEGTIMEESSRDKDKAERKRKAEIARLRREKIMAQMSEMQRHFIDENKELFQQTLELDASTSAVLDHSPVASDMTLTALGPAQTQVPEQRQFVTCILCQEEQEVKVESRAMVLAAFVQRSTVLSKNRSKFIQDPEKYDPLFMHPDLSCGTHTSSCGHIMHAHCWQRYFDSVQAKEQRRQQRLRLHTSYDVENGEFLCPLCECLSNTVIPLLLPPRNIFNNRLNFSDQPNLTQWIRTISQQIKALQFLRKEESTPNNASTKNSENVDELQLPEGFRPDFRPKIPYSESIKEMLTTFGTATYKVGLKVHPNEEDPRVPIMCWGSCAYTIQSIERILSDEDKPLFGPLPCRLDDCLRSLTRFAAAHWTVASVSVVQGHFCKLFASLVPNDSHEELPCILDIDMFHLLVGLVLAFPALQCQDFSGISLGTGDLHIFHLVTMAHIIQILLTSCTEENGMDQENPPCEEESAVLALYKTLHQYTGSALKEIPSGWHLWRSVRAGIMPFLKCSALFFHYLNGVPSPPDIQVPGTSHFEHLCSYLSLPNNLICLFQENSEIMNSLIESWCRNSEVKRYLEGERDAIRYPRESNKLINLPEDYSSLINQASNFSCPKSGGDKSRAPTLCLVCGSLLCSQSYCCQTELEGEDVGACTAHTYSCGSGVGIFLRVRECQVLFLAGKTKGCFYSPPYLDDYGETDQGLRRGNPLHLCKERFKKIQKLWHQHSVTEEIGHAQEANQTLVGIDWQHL

[9] = biological target: Cullin 3 (human) (UniProt Q13618); test: Flag co-IP, MudPIT MS, MG132
[10] = biological target: Kelch-like protein 22. KLEIL22 (human) (UniProt Q53GT1); test: Flag co-IP, MudPIT MS, MG132
[11] = biological target: SKP1 (human) (UniProt P63208); test: Flag co-IP, MudPIT MS, MG132
Chain of SKP1 (human) (P63208 2-163 limits assumed): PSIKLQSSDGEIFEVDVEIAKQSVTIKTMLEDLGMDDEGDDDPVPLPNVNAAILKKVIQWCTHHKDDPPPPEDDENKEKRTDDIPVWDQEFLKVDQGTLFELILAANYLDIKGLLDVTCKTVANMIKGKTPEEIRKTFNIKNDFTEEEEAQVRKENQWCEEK

[12] = biological target: CUL4- and DDB I-associated WDR protein 2, WDR26 (human) (UniProt Q9H7D7); test: Flag co-IP, MudPIT MS, MG132
Chain of CUL4- and DDB I-associated WDR protein 2, WDR26 (human) (Q9H7D7 whole entry): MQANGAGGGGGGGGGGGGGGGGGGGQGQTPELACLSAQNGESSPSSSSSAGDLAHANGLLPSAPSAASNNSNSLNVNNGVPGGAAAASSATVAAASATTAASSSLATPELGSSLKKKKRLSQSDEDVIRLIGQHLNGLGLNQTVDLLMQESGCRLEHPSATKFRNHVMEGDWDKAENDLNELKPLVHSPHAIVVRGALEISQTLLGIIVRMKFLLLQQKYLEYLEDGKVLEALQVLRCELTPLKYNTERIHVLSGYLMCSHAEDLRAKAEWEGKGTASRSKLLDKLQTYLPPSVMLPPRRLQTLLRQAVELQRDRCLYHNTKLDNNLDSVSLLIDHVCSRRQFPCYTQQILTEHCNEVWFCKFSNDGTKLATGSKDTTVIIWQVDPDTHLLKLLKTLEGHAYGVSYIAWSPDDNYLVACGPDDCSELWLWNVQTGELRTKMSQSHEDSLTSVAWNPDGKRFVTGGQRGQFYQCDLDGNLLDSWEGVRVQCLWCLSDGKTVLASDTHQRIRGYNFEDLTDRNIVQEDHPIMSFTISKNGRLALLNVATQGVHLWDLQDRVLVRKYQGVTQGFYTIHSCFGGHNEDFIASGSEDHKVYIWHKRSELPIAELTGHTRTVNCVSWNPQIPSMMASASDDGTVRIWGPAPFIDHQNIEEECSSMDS

[13] = biological target: Retinoblastoma-associated factor 600, UBR4 (human) (UniProt Q5T4S7); test: Flag co-IP, MudPIT MS, DMSO
[14] = biological target: Praja 2 (human) (UniProt O43164); test: Flag co-IP, MudPIT MS, DMSO
[15] = biological target: gp78 (human) (UniProt Q9UKV5); test: Flag co-IP, MudPIT MS, DMSO
[16] = biological target: Cullin 1 (human) (UniProt Q13616); test: Flag co-IP, MudPIT MS, DMSO
[17] = biological target: UBR2 (human) (UniProt Q8IWV8); test: Flag co-IP, MudPIT MS, DMSO
[18] = biological target: Cullin 3 (human) (UniProt Q13618); test: Flag co-IP, MudPIT MS, DMSO
[19] = biological target: Kelch-like protein 22. KLEIL22 (human) (UniProt Q53GT1); test: Flag co-IP, MudPIT MS, DMSO
[20] = biological target: SKP1 (human) (UniProt P63208); test: Flag co-IP, MudPIT MS, DMSO
[21] = biological target: Kelch repeat and BTB domain-containing protein 7, KBTB7 (human) (UniProt Q8WVZ9); test: Flag co-IP, MudPIT MS, DMSO
[22] = biological target: UBR1 (human) (UniProt Q8IWV7); test: Flag co-IP, MudPIT MS, DMSO
[23] = biological target: T2, endogenous UFD1 (human) (UniProt Q92890); test: Flag co-IP, 293 cells, MudPIT MS
T2 sequence (looked up): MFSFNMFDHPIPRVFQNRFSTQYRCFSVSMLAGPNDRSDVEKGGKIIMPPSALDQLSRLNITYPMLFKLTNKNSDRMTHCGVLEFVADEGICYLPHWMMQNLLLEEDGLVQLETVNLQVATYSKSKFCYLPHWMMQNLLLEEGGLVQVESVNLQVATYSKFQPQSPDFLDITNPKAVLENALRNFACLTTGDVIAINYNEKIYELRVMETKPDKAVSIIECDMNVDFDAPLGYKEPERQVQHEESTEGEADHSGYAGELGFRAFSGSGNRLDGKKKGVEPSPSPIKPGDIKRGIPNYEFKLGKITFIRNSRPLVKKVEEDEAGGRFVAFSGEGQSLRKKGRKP

[24] = biological target: endogenous NPL4 (human) (UniProt Q8TAT6); test: Flag co-IP, 293 cells, MudPIT MS
Chain of endogenous NPL4 (human) (Q8TAT6 other isoform, or with tags, fused parts or gaps limits assumed): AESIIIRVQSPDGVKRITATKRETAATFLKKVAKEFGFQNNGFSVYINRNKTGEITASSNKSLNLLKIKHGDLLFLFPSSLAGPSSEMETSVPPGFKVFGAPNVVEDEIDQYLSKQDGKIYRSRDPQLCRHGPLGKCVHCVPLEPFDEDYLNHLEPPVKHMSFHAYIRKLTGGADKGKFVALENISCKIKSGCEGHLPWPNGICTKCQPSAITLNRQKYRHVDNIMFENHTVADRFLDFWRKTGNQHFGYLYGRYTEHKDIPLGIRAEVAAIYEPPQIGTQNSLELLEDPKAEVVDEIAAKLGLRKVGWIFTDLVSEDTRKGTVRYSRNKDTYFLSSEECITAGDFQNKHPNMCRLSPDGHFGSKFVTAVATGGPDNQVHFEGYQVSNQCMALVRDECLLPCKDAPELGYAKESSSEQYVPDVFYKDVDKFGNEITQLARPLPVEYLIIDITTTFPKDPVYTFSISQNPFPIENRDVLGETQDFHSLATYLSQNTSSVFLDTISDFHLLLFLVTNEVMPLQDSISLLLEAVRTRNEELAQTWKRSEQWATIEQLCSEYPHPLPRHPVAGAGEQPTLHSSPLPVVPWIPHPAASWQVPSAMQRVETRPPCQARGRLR

[25] = biological target: endogenous p97 (human) (UniProt P55072); test: Flag co-IP, 293 cells, MudPIT MS
[26] = biological target: DNA damage-binding protein I. DDB1 (human) (UniProt Q16531); test: Flag co-IP, MudPIT MS, MG132
[27] = biological target: Ubiquitin conjugation factor E4 B, UBE4B (Ufd2ortholog) (human) (UniProt O95155); test: Flag co-IP, MudPIT MS, MG132
[28] = biological target: Galectin-3 binding protein. LG3BP (human) (UniProt Q08380); test: Flag co-IP, MudPIT MS, DMSO
[29] = biological target: EDD1/UBR5 (human) (UniProt O95071); test: Flag co-IP, MudPIT MS, DMSO
[30] = biological target: DNA damage-binding protein I. DDB1 (human) (UniProt Q16531); test: Flag co-IP, MudPIT MS, DMSO
[31] = biological target: Ubiquitin conjugation factor E4 B, UBE4B (Ufd2ortholog) (human) (UniProt O95155); test: Flag co-IP, MudPIT MS, DMSO
[32] = biological target: p97-Myc; test: p97-Myc co-IP, 293 cells, MudPIT MS

Chain of endogenous FAF1 (Q9UNN5 whole entry): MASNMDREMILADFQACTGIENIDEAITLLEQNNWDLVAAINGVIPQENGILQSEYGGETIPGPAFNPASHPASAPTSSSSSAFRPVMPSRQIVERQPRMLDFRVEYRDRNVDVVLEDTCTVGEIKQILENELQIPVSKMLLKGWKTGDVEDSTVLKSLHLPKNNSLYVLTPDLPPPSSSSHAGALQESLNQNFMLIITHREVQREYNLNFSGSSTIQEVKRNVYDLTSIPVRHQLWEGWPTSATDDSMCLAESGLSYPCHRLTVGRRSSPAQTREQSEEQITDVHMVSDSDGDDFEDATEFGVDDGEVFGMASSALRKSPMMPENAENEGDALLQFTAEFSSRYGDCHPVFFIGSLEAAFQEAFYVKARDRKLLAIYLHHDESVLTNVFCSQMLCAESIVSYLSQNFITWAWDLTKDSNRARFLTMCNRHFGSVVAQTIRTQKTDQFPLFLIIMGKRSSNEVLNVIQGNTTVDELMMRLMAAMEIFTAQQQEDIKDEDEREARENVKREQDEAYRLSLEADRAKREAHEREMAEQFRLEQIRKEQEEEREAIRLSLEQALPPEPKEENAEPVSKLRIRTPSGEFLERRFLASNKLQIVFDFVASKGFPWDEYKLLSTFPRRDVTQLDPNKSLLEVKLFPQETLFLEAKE

## Flag-ASPL (from UniProt Q9BZE9 1-553)
[1]
  sequence count: 10
  sequence coverage: 22.8%
  spectrum count: 10

## Flag-FAF1 (from UniProt Q9UNN5 1-650)
[2]
  sequence count: 5
  sequence coverage: 5.9%
  spectrum count: 5
[1]
  sequence count: 2
  sequence coverage: 4.8%
  spectrum count: 2
[3]
  abundance factor (AF): 10.2
  sequence count: 47
  spectrum count: 56
[4]
  abundance factor (AF): 7.2
  sequence count: 6
  spectrum count: 6
[5]
  abundance factor (AF): 8.6
  sequence count: 4
  spectrum count: 6
[6]
  abundance factor (AF): 8.4
  sequence count: 5
  spectrum count: 7
[7]
  abundance factor (AF): 3.4
  sequence count: 2
  spectrum count: 2
[8]
  abundance factor (AF): 1
  sequence count: 2
  spectrum count: 2
[9]
  abundance factor (AF): 14.1
  sequence count: 12
  spectrum count: 12
[10]
  abundance factor (AF): 11.7
  sequence count: 8
  spectrum count: 8
[11]
  abundance factor (AF): 33.6
  sequence count: 4
  spectrum count: 6
[12]
  abundance factor (AF): 8.9
  sequence count: 5
  spectrum count: 5
[13]
  abundance factor (AF): 1.6
  sequence count: 9
  spectrum count: 9
[14]
  abundance factor (AF): 3.8
  sequence count: 3
  spectrum count: 3
[15]
  abundance factor (AF): 2.7
  sequence count: 2
  spectrum count: 2
[16]
  abundance factor (AF): 9.1
  sequence count: 6
  spectrum count: 8
[17]
  abundance factor (AF): 2
  sequence count: 4
  spectrum count: 4
[18]
  abundance factor (AF): 24.6
[19]
  abundance factor (AF): 8.3
  sequence count: 6
  spectrum count: 6
[20]
  abundance factor (AF): 10.7
  sequence count: 2
  spectrum count: 2
[21]
  abundance factor (AF): 2.6
  sequence count: 2
  spectrum count: 2
[22]
  abundance factor (AF): 1
  sequence count: 2
  spectrum count: 2

## Flag-UBXD1 (from UniProt Q9BZV1 1-441)
[2]
  sequence count: 2
  sequence coverage: 2.5%
  spectrum count: 2
[1]
  sequence count: 3
  sequence coverage: 7.5%
  spectrum count: 3

## Flag-UBXD3 (from UniProt Q96LJ8 1-280)
[23]
  sequence count: 3
  sequence coverage: 12.2%
  spectrum count: 3
[24]
  sequence count: 7
  sequence coverage: 14.1%
  spectrum count: 9

## Flag-UBXD5
[2]
  sequence count: 20
  sequence coverage: 27.5%
  spectrum count: 25
[25]
  sequence count: 124
  sequence coverage: 75.5%
  spectrum count: 783
[1]
  sequence count: 6
  sequence coverage: 11.6%
  spectrum count: 6
[24]
  sequence count: 2
  sequence coverage: 5.2%
  spectrum count: 3

## Flag-UBXD6 (from UniProt O00124 1-270)
[2]
  sequence count: 2
  sequence coverage: 2.7%
  spectrum count: 2
[23]
  sequence count: 4
  sequence coverage: 19.2%
  spectrum count: 5
[24]
  sequence count: 9
  sequence coverage: 16.5%
  spectrum count: 16

## Flag-p47 (from UniProt O35987 1-370)
[1]
  sequence count: 27
  sequence coverage: 42.9%
  spectrum count: 38
[3]
  abundance factor (AF): 0.2
  sequence count: 2
  spectrum count: 3
[4]
  abundance factor (AF): 1
  sequence count: 2
  spectrum count: 2
[5]
  abundance factor (AF): 1.7
  sequence count: 3
  spectrum count: 3
[26]
  abundance factor (AF): 1
  sequence count: 3
  spectrum count: 3
[27]
  abundance factor (AF): 1.4
  sequence count: 5
  spectrum count: 5
[28]
  abundance factor (AF): 1.5
  sequence count: 3
  spectrum count: 3
[29]
  abundance factor (AF): 0.2
  sequence count: 2
  spectrum count: 2
[30]
  abundance factor (AF): 0.5
  sequence count: 2
  spectrum count: 2
[31]
  abundance factor (AF): 1.1
  sequence count: 5
  spectrum count: 5

## endogenous FAF1 (from UniProt Q9UNN5 1-650)
[32]
  sequence count: 7
  sequence coverage: 8.2%
  spectrum count: 11
